Measurements: paper PMC7910607, “Structure-guided insights into heterocyclic ring-cleavage catalysis of the non-heme Fe (II) dioxygenase NicX” (Nature Communications, 2021)

Key:
[1] = target: T1, NicX (2,5-dihydroxypyridine dioxygenase) (Pseudomonas putida, UniProt Q88FY1); assay: X-ray crystal structure, […] Å, soaked crystals; assay type: binding; details: soaked with 5 mM Fe2+, then 5 mM DHP and 20 mM sodium dithionite
T1 construct: full-length WT in pET-24a, C-terminal 6xHis tag, E. coli BL21(DE3), ~39 kDa, homohexamer, mononuclear Fe(II); domains residues 2-151 and 152-350
T1 sequence (Q88FY1 1-350): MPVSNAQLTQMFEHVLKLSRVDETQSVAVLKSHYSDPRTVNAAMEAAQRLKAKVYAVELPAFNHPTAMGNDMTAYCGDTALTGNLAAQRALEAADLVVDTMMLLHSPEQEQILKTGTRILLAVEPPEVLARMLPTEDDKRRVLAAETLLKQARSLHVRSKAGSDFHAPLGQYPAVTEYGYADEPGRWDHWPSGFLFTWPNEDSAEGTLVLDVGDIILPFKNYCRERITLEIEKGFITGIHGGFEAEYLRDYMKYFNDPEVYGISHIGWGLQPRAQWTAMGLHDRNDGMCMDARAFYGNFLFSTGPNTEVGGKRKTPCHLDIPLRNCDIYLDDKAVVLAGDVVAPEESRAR

[2] = tested on: T2, Oc1ccc(O)nc1; assay: purified protein; assay type: biochemical, Pseudomonas putida; details: 20 mM Tris-HCl pH 8.0, 50 µM FeCl2, 25 °C, O2 (air)
T2 construct: full-length WT in pET-24a, C-terminal 6xHis tag, E. coli BL21(DE3), ~39 kDa, homohexamer, mononuclear Fe(II); domains residues 2-151 and 152-350

[3] = substrate: Oc1ccc(O)nc1; assay: purified protein; assay type: biochemical, Pseudomonas putida; details: 20 mM Tris-HCl pH 8.0, 50 µM FeCl2, 25 °C, O2 (air)
[4] = target: the molecule itself; assay: crystal structure; hanging-drop vapor diffusion at 20 °C, 20% PEG 3350, pH 7.0; six molecules in the asymmetric unit; also crystals soaked with Fe2+ and DHP

Molecule: Oc1ccc(O)nc1 [DHP, 2,5-dihydroxypyridine]
- X-ray crystal structure, 2.20 Å, soaked crystals ([1]; active site of subunits C, D, E, F): four subunits (C, D, E, and F) of the six constituent molecules

Molecule: O=CNC(=O)/C=C\C(=O)O [NFM, N-formylmaleamic acid]
- X-ray crystal structure, 2.20 Å, soaked crystals ([1]; active site of subunits A and B, formed in crystal from DHP): the other subunits (A and B) contain the product NFM

Molecule: NicX (2,5-dihydroxypyridine dioxygenase) (Pseudomonas putida KT2440; E308A)
- Km [2]: 95.85 ± 3.68 µM

Molecule: NicX (2,5-dihydroxypyridine dioxygenase) (Pseudomonas putida KT2440; V175F)
- Km [2]: 117.9 ± 3.68 µM

B1: NicX (2,5-dihydroxypyridine dioxygenase) (Pseudomonas putida KT2440) (protein)
chain: MPVSNAQLTQMFEHVLKLSRVDETQSVAVLKSHYSDPRTVNAAMEAAQRLKAKVYAVELPAFNHPTAMGNDMTAYCGDTALTGNLAAQRALEAADLVVDTMMLLHSPEQEQILKTGTRILLAVEPPEVLARMLPTEDDKRRVLAAETLLKQARSLHVRSKAGSDFHAPLGQYPAVTEYGYADEPGRWDHWPSGFLFTWPNEDSAEGTLVLDVGDIILPFKNYCRERITLEIEKGFITGIHGGFEAEYLRDYMKYFNDPEVYGISHIGWGLQPRAQWTAMGLHDRNDGMCMDARAFYGNFLFSTGPNTEVGGKRKTPCHLDIPLRNCDIYLDDKAVVLAGDVVAPEESRAR
notes: full-length WT in pET-24a, C-terminal 6xHis tag, E. coli BL21(DE3), ~39 kDa, homohexamer, mononuclear Fe(II); domains residues 2-151 and 152-350
- Km [3]: 94.9 ± 3.84 µM

B2: 2,5-Dihydroxypyridine dioxygenase (NicX) from Pseudomonas putida KT2440 (enzyme, UniProt Q88FY1 1-350, looked up)
chain: MPVSNAQLTQMFEHVLKLSRVDETQSVAVLKSHYSDPRTVNAAMEAAQRLKAKVYAVELPAFNHPTAMGNDMTAYCGDTALTGNLAAQRALEAADLVVDTMMLLHSPEQEQILKTGTRILLAVEPPEVLARMLPTEDDKRRVLAAETLLKQARSLHVRSKAGSDFHAPLGQYPAVTEYGYADEPGRWDHWPSGFLFTWPNEDSAEGTLVLDVGDIILPFKNYCRERITLEIEKGFITGIHGGFEAEYLRDYMKYFNDPEVYGISHIGWGLQPRAQWTAMGLHDRNDGMCMDARAFYGNFLFSTGPNTEVGGKRKTPCHLDIPLRNCDIYLDDKAVVLAGDVVAPEESRAR
notes: NicX, 2,5-dihydroxypyridine dioxygenase of Pseudomonas putida KT2440, full-length wild type; residues 2-350 described in the structure; Cloned into pET-24a between NdeI and HindIII with a C-terminal His tag; in PDB 7CN3 the crystals were soaked with Fe2+ and DHP (subunits C-F hold DHP, A and B hold NFM); also called WT NicX; wild type NicX; source: E. coli BL21(DE3), purified (Ni-NTA, Superdex200 …)
- stoichiometry N [4]: 6

B3: SeMet-substituted NicX (enzyme, Pseudomonas putida KT2440, UniProt Q88FY1 1-350, looked up)
chain: MPVSNAQLTQMFEHVLKLSRVDETQSVAVLKSHYSDPRTVNAAMEAAQRLKAKVYAVELPAFNHPTAMGNDMTAYCGDTALTGNLAAQRALEAADLVVDTMMLLHSPEQEQILKTGTRILLAVEPPEVLARMLPTEDDKRRVLAAETLLKQARSLHVRSKAGSDFHAPLGQYPAVTEYGYADEPGRWDHWPSGFLFTWPNEDSAEGTLVLDVGDIILPFKNYCRERITLEIEKGFITGIHGGFEAEYLRDYMKYFNDPEVYGISHIGWGLQPRAQWTAMGLHDRNDGMCMDARAFYGNFLFSTGPNTEVGGKRKTPCHLDIPLRNCDIYLDDKAVVLAGDVVAPEESRAR
modifications: selenomethionine (SeMet) substituted
notes: NicX, 2,5-dihydroxypyridine dioxygenase of Pseudomonas putida KT2440, selenomethionine-substituted form of the full-length construct; Same construct as m1, expressed with selenomethionine for SAD phasing; also called SeMet-NicX; Se-NicX; source: E. coli B834(DE3) in M9 minimal media, purified (Ni-NTA, Superdex200 gel filtration)
- binding result [4]: binds
